In patent US20090305419:

Assays:
Experiment in all cases: cell_activity
[1] = test system: CCR5 ZFN SBS#8266, wild-type ZC linker (artificial (zinc finger-FokI)); settings: average of 2; ZFN pair
[2] = test system: CCR5 ZFN SBS#8266, L7a linker (artificial (zinc finger-FokI)); settings: ZFN pair
[3] = test system: CCR5 ZFN SBS#8266, L6a linker (artificial (zinc finger-FokI)); settings: average of 2; ZFN pair
[4] = test system: rat IgM-targeted ZFN pair, with L7a linker (artificial (zinc finger-FokI)); settings: rat C6 cells, CEL-I
[5] = test system: rat IgM-targeted ZFN pair, ZC linker (artificial (zinc finger-FokI)); settings: rat C6 cells, CEL-I
[6] = test system: mROSA-targeted ZFN pair, Wt/L7a linkers (artificial (zinc finger-FokI)); settings: Neuro2A; mock 0.4
[7] = test system: mROSA-targeted ZFN pair, Wt/Wt linkers (artificial (zinc finger-FokI)); settings: Neuro2A; mock 0.4; repeats 23.2 and 18.7

Sequence of CCR5 ZFN SBS#8266, L7a linker (artificial (zinc finger-FokI)) (chain, as listed by the source): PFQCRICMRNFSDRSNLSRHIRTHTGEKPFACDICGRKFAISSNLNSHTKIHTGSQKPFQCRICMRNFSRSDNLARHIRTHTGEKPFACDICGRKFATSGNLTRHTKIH
Sequence of CCR5 ZFN SBS#8266, L6a linker (artificial (zinc finger-FokI)) (chain, as listed by the source): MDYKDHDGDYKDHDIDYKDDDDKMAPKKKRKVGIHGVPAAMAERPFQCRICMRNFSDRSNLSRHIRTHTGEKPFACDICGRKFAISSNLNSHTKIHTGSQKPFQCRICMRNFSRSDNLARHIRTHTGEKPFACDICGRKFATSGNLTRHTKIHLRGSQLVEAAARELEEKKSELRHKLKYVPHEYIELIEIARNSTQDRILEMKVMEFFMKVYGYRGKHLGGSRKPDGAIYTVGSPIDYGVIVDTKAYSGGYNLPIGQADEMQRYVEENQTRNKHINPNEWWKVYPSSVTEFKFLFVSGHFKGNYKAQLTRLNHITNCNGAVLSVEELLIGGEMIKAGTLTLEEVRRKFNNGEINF

For CCR5 ZFN target, 4 bp gap, which activity [1] is on record?
Its activity is 1.2 % NHEJ.

Which results are given for CCR5 ZFN target, 6 bp gap?
activity [1]: 11.1 % NHEJ; activity ([2]; average of 2): 31.8 % NHEJ; activity [3]: 25.4 % NHEJ

How did the activity ([2]; average of 2) turn out when CCR5 ZFN target, 7 bp gap was run?
Its activity is 39.6 % NHEJ.

What about the activity [3] of the same substance?
The activity was 5.1 % NHEJ.

Which activity ([2]; average of 2 as printed) does the source give for CCR5 ZFN target, 8 bp gap here?
Its activity is 6.1 % NHEJ.

Which activity [4] does the source give for rat IgM target, 6 bp gap here?
The activity was 2.43 % NHEJ.

What about the activity [5] of the same substance?
Its activity is 1.93 % NHEJ.

CCR5 ZFN target, 5 bp gap was tested. Which activity [1] did it give?
The activity was 35 % NHEJ.

What about the activity [3] of the same substance?
The activity was 39.3 % NHEJ.

Which results are given for mROSA target, 6 bp gap?
activity [6]: 7.5 % NHEJ; activity [7]: 22.6 % NHEJ
